Test results: patent US20140087995A1 (published 2014)
Numbered stars: 1 amine (or outer) side, 2 acyl side, 3 side chain; on linkers, the order of the positions; unused ones are H or OH. Bridge positions count the residues as written; N and C are the ends. Side chains are listed from the residue outwards. Ends that are not written are not given here. * marks the point of attachment. C20 diacid = O=C(O)CCCCCCCCCCCCCCCCCCC(=O)*; γGlu = O=C(O)[C@H](CCC(=O)[*:2])N[*:1]

T1: rat calcitonin receptor (rat, UniProt P32214 25-516)
T1 construct: whole, on cells; Membranes prepared from transiently transfected BHK tk'ts 13 cells (Assay VIII); also called rCTR; rCT
T1 sequence (looked up): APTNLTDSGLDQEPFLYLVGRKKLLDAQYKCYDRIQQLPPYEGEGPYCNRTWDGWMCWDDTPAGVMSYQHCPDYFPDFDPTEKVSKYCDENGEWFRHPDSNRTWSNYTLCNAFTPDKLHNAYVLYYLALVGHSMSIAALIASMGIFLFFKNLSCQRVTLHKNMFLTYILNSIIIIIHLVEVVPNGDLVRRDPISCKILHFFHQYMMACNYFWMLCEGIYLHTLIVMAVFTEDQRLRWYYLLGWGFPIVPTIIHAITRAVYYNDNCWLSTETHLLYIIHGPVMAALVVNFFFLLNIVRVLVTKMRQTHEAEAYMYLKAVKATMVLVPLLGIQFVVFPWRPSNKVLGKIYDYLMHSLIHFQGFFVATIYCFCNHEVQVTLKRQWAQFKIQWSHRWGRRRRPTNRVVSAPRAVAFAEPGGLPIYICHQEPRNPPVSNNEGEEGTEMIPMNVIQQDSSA

T2: human calcitonin receptor (human, UniProt P30988 25-474)
T2 construct: whole, on cells; Membranes prepared from a stably transfected BHK cell line (Assay VII); also called hCTR; hCT
T2 sequence (looked up): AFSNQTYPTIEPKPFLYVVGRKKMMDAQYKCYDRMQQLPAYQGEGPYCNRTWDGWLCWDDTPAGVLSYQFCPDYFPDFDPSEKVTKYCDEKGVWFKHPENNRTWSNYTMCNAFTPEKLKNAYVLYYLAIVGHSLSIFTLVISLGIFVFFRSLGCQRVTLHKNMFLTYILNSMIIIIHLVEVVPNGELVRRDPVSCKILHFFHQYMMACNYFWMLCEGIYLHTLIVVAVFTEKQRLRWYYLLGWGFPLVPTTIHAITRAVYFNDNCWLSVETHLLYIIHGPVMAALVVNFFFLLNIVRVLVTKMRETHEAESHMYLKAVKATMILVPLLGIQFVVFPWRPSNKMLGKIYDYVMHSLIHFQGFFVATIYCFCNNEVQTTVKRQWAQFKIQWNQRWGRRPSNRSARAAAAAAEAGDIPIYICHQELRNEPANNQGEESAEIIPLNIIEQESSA

T3: rat amylin receptor (rat calcitonin receptor + rat RAMP 3) (rat, UniProt P32214 25-516; Q9JJ73 23-147)
T3 construct: whole, on cells; Membranes prepared from transiently transfected BHK tk'ts 13 cells (Assay VI); also called rAmylin-R; rAmylin
T3 sequence (looked up) 1: T1 sequence (looked up)
T3 sequence (looked up) 2: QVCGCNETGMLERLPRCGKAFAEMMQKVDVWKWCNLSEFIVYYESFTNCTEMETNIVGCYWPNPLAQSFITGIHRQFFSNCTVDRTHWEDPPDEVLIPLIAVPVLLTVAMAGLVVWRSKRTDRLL

B1: N^ε1-[(4S)-4-carboxy-4-(19-carboxynonadecanoylamino)butanoyl]-[Arg14,Arg17,Pro21,Pro27]-h-amylin (peptide)
peptide: K([γGlu-C20 diacid])CNTATCATQRLARFLRHSSPNFGAIPSSTNVGSNTY-NH2
modifications: disulfide 2-7; N-terminus assumed
SMILES: CC[C@H](C)[C@H](NC(=O)[C@H](C)NC(=O)CNC(=O)[C@H](Cc1ccccc1)NC(=O)[C@H](CC(N)=O)NC(=O)[C@@H]1CCCN1C(=O)[C@H](CO)NC(=O)[C@H](CO)NC(=O)[C@H](Cc1c[nH]cn1)NC(=O)[C@H](CCCNC(=N)N)NC(=O)[C@H](CC(C)C)NC(=O)[C@H](Cc1ccccc1)NC(=O)[C@H](CCCNC(=N)N)NC(=O)[C@H](C)NC(=O)[C@H](CC(C)C)NC(=O)[C@H](CCCNC(=N)N)NC(=O)[C@H](CCC(N)=O)NC(=O)[C@@H](NC(=O)[C@H](C)NC(=O)[C@@H]1CSSC[C@H](NC(=O)[C@@H](N)CCCCNC(=O)CC[C@H](NC(=O)CCCCCCCCCCCCCCCCCCC(=O)O)C(=O)O)C(=O)N[C@@H](CC(N)=O)C(=O)N[C@@H]([C@@H](C)O)C(=O)N[C@@H](C)C(=O)N[C@@H]([C@@H](C)O)C(=O)N1)[C@@H](C)O)C(=O)N1CCC[C@H]1C(=O)N[C@@H](CO)C(=O)N[C@@H](CO)C(=O)N[C@H](C(=O)N[C@@H](CC(N)=O)C(=O)N[C@H](C(=O)NCC(=O)N[C@@H](CO)C(=O)N[C@@H](CC(N)=O)C(=O)N[C@H](C(=O)N[C@@H](Cc1ccc(O)cc1)C(N)=O)[C@@H](C)O)C(C)C)[C@@H](C)O
notes: Analogue of human amylin; also called compound 83
B2: N^ε1-[(4S)-4-carboxy-4-(19-carboxynonadecanoylamino)butanoyl]-[Arg17,Pro21,Pro27,His35]-h-amylin (peptide)
peptide: K([γGlu-C20 diacid])CNTATCATQRLANFLRHSSPNFGAIPSSTNVGSHTY-NH2
modifications: disulfide 2-7; N-terminus assumed
SMILES: CC[C@H](C)[C@H](NC(=O)[C@H](C)NC(=O)CNC(=O)[C@H](Cc1ccccc1)NC(=O)[C@H](CC(N)=O)NC(=O)[C@@H]1CCCN1C(=O)[C@H](CO)NC(=O)[C@H](CO)NC(=O)[C@H](Cc1c[nH]cn1)NC(=O)[C@H](CCCNC(=N)N)NC(=O)[C@H](CC(C)C)NC(=O)[C@H](Cc1ccccc1)NC(=O)[C@H](CC(N)=O)NC(=O)[C@H](C)NC(=O)[C@H](CC(C)C)NC(=O)[C@H](CCCNC(=N)N)NC(=O)[C@H](CCC(N)=O)NC(=O)[C@@H](NC(=O)[C@H](C)NC(=O)[C@@H]1CSSC[C@H](NC(=O)[C@@H](N)CCCCNC(=O)CC[C@H](NC(=O)CCCCCCCCCCCCCCCCCCC(=O)O)C(=O)O)C(=O)N[C@@H](CC(N)=O)C(=O)N[C@@H]([C@@H](C)O)C(=O)N[C@@H](C)C(=O)N[C@@H]([C@@H](C)O)C(=O)N1)[C@@H](C)O)C(=O)N1CCC[C@H]1C(=O)N[C@@H](CO)C(=O)N[C@@H](CO)C(=O)N[C@H](C(=O)N[C@@H](CC(N)=O)C(=O)N[C@H](C(=O)NCC(=O)N[C@@H](CO)C(=O)N[C@@H](Cc1c[nH]cn1)C(=O)N[C@H](C(=O)N[C@@H](Cc1ccc(O)cc1)C(N)=O)[C@@H](C)O)C(C)C)[C@@H](C)O
notes: Analogue of human amylin; also called compound 60
B3: N^ε1-[(4S)-4-carboxy-4-(19-carboxynonadecanoylamino)butanoyl]-[Arg17,Pro21,Pro27,His34]-h-amylin (peptide)
peptide: K([γGlu-C20 diacid])CNTATCATQRLANFLRHSSPNFGAIPSSTNVGHNTY-NH2
modifications: disulfide 2-7; N-terminus assumed
SMILES: CC[C@H](C)[C@H](NC(=O)[C@H](C)NC(=O)CNC(=O)[C@H](Cc1ccccc1)NC(=O)[C@H](CC(N)=O)NC(=O)[C@@H]1CCCN1C(=O)[C@H](CO)NC(=O)[C@H](CO)NC(=O)[C@H](Cc1c[nH]cn1)NC(=O)[C@H](CCCNC(=N)N)NC(=O)[C@H](CC(C)C)NC(=O)[C@H](Cc1ccccc1)NC(=O)[C@H](CC(N)=O)NC(=O)[C@H](C)NC(=O)[C@H](CC(C)C)NC(=O)[C@H](CCCNC(=N)N)NC(=O)[C@H](CCC(N)=O)NC(=O)[C@@H](NC(=O)[C@H](C)NC(=O)[C@@H]1CSSC[C@H](NC(=O)[C@@H](N)CCCCNC(=O)CC[C@H](NC(=O)CCCCCCCCCCCCCCCCCCC(=O)O)C(=O)O)C(=O)N[C@@H](CC(N)=O)C(=O)N[C@@H]([C@@H](C)O)C(=O)N[C@@H](C)C(=O)N[C@@H]([C@@H](C)O)C(=O)N1)[C@@H](C)O)C(=O)N1CCC[C@H]1C(=O)N[C@@H](CO)C(=O)N[C@@H](CO)C(=O)N[C@H](C(=O)N[C@@H](CC(N)=O)C(=O)N[C@H](C(=O)NCC(=O)N[C@@H](Cc1c[nH]cn1)C(=O)N[C@@H](CC(N)=O)C(=O)N[C@H](C(=O)N[C@@H](Cc1ccc(O)cc1)C(N)=O)[C@@H](C)O)C(C)C)[C@@H](C)O
notes: Analogue of human amylin; also called compound 77
B4: N^ε1-[(4S)-4-carboxy-4-(19-carboxynonadecanoylamino)butanoyl]-[His14,Arg17,Pro21,Pro27,Arg34]-h-amylin (peptide)
peptide: K([γGlu-C20 diacid])CNTATCATQRLAHFLRHSSPNFGAIPSSTNVGRNTY-NH2
modifications: disulfide 2-7; N-terminus assumed
SMILES: CC[C@H](C)[C@H](NC(=O)[C@H](C)NC(=O)CNC(=O)[C@H](Cc1ccccc1)NC(=O)[C@H](CC(N)=O)NC(=O)[C@@H]1CCCN1C(=O)[C@H](CO)NC(=O)[C@H](CO)NC(=O)[C@H](Cc1c[nH]cn1)NC(=O)[C@H](CCCNC(=N)N)NC(=O)[C@H](CC(C)C)NC(=O)[C@H](Cc1ccccc1)NC(=O)[C@H](Cc1c[nH]cn1)NC(=O)[C@H](C)NC(=O)[C@H](CC(C)C)NC(=O)[C@H](CCCNC(=N)N)NC(=O)[C@H](CCC(N)=O)NC(=O)[C@@H](NC(=O)[C@H](C)NC(=O)[C@@H]1CSSC[C@H](NC(=O)[C@@H](N)CCCCNC(=O)CC[C@H](NC(=O)CCCCCCCCCCCCCCCCCCC(=O)O)C(=O)O)C(=O)N[C@@H](CC(N)=O)C(=O)N[C@@H]([C@@H](C)O)C(=O)N[C@@H](C)C(=O)N[C@@H]([C@@H](C)O)C(=O)N1)[C@@H](C)O)C(=O)N1CCC[C@H]1C(=O)N[C@@H](CO)C(=O)N[C@@H](CO)C(=O)N[C@H](C(=O)N[C@@H](CC(N)=O)C(=O)N[C@H](C(=O)NCC(=O)N[C@@H](CCCNC(=N)N)C(=O)N[C@@H](CC(N)=O)C(=O)N[C@H](C(=O)N[C@@H](Cc1ccc(O)cc1)C(N)=O)[C@@H](C)O)C(C)C)[C@@H](C)O
notes: Analogue of human amylin; also called compound 85
B5: N^ε1-[(4S)-4-carboxy-4-(19-carboxynonadecanoylamino)butanoyl]-[Arg17,Pro21,Pro27,Arg34]-h-amylin (peptide)
peptide: K([γGlu-C20 diacid])CNTATCATQRLANFLRHSSPNFGAIPSSTNVGRNTY-NH2
modifications: disulfide 2-7; N-terminus assumed
SMILES: CC[C@H](C)[C@H](NC(=O)[C@H](C)NC(=O)CNC(=O)[C@H](Cc1ccccc1)NC(=O)[C@H](CC(N)=O)NC(=O)[C@@H]1CCCN1C(=O)[C@H](CO)NC(=O)[C@H](CO)NC(=O)[C@H](Cc1c[nH]cn1)NC(=O)[C@H](CCCNC(=N)N)NC(=O)[C@H](CC(C)C)NC(=O)[C@H](Cc1ccccc1)NC(=O)[C@H](CC(N)=O)NC(=O)[C@H](C)NC(=O)[C@H](CC(C)C)NC(=O)[C@H](CCCNC(=N)N)NC(=O)[C@H](CCC(N)=O)NC(=O)[C@@H](NC(=O)[C@H](C)NC(=O)[C@@H]1CSSC[C@H](NC(=O)[C@@H](N)CCCCNC(=O)CC[C@H](NC(=O)CCCCCCCCCCCCCCCCCCC(=O)O)C(=O)O)C(=O)N[C@@H](CC(N)=O)C(=O)N[C@@H]([C@@H](C)O)C(=O)N[C@@H](C)C(=O)N[C@@H]([C@@H](C)O)C(=O)N1)[C@@H](C)O)C(=O)N1CCC[C@H]1C(=O)N[C@@H](CO)C(=O)N[C@@H](CO)C(=O)N[C@H](C(=O)N[C@@H](CC(N)=O)C(=O)N[C@H](C(=O)NCC(=O)N[C@@H](CCCNC(=N)N)C(=O)N[C@@H](CC(N)=O)C(=O)N[C@H](C(=O)N[C@@H](Cc1ccc(O)cc1)C(N)=O)[C@@H](C)O)C(C)C)[C@@H](C)O
notes: Analogue of human amylin; also called compound 79

molecular target: T1, rat calcitonin receptor; assay: ratio of binding IC50s: rat calcitonin receptor / rat amylin receptor (reference)

Ratio rCT/rAmylin binding	Binder
49.7	B1
122	B2
137	B3
46.5	B4
21.5	B5

molecular target: T2, human calcitonin receptor; assay: ratio of binding IC50s: human calcitonin receptor / human amylin receptor (reference)
Procedure, shortened: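 Competition binding by SPA uses membrane preparations (35 ng/μL final) in pH 7.4 Hepes buffer with 1 mM CaCl2 and 5 mM MgCl₂. Incubation lasts 120 min at 25° C, and IC₅₀ comes from one-site fitting.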

Ratio hCT/hAmylin binding	Binder
146	B1
45.2	B2
118	B3
91.8	B4
46.1	B5

molecular target: T1, rat calcitonin receptor; assay: SPA competition vs 125I-calcitonin, membranes of BHK cells with rat calcitonin receptor (Assay VIII)

IC50	Binder
140 nM	B1
26.3 nM	B2
205 nM	B3
146 nM	B4
35.5 nM	B5

molecular target: T3, rat amylin receptor (rat calcitonin …); assay: SPA competition vs 125I-rat amylin, membranes of BHK cells with rat calcitonin receptor + rat RAMP3 (Assay VI)

IC50	Binder
2.83 nM	B1
0.215 nM	B2
1.5 nM	B3
3.14 nM	B4
1.65 nM	B5
